Laboratory results as given in PMC6508825, “Rice plants have three homologs of glutathione synthetase genes, one of which, OsGS2, codes for hydroxymethyl‐glutathione synthetase” (Plant Direct, 2019).

Tests used:
Conditions in all cases: 1 mmol/L gamma-glutamylcysteine, 2 mmol/L ATP, 20 mmol/L MgCl2, 50 mmol/L KCl, 1 mmol/L DTT, Tris-HCl pH 8.0, 30 °C, apparent, 0.2-10 mmol/L amino acid
[1] = substrate: NCC(=O)O; assay: HPLC with fluorescence detection of monobromobimane-derivatized thiol peptide product, Michaelis-Menten fit; format: biochemical, Oryza sativa
Excerpt: HPLC with fluorescence detection of monobromobimane-derivatized thiol peptide product, Michaelis-Menten fit on MBP-OsGS3

[2] = substrate: N[C@@H](CO)C(=O)O; assay: purified protein
[3] = substrate: NCC(=O)O; assay: HPLC with fluorescence detection of monobromobimane-derivatized thiol peptide product, Michaelis-Menten fit; format: biochemical, Oryza sativa; remark: listed apart in the source
Excerpt: HPLC with fluorescence detection of monobromobimane-derivatized thiol peptide product, Michaelis-Menten fit on MBP-OsGS2

[4] = substrate: NCC(=O)O; assay: as above; format: biochemical, Oryza sativa; remark: listed apart in the source
Excerpt: HPLC with fluorescence detection of monobromobimane-derivatized thiol peptide product, Michaelis-Menten fit on MBP-OsGS1

B1: MBP-OsGS3 (Oryza sativa Japonica Group) (protein)
chain: MSAAAEGRPPAAAAAGEMVREATAWCALHGLVVGDRADPRSGTVPGVGLVHAPFSLLPTHLPESHWRQACELAPIFNELVDRVSLDGDFLQDSLSKTKQVDDFTSRLLEIHRKMMEINKEENIRLGLHRSDYMLDSETNSLLQIELNTISASFPGLGSLVSELHRTLIDQYGHLFCLDSKRVPGNEASSQFAKALARAWDEFNVDSAVIMMIVQPEERNMYDQYWLAKHLKESHGITTIRKTLSEVEAEGHVLPDGTLVIDGKTVSVVYFRAGYTPNDYPSEAEWAARLLLEQSSAVKCPSISYHLVGTKKIQQELARPNVLERFLENKEEITKIRKCFAGLWSLDDEEIVKSAIQKPELFVLKPQREGGGNNIYGIDVRETLIRLQKEGGDALAAYILMQRIFPKASLSNLVRGGVCHEALTISELGIYGAYLRNNDKVVMNEQSGYLMRTKVSSSDEGGVAAGFAVLDSLYLTDKAM
notes: MBP kept
**Q.** What does the source list for B1?
**A.** Km [1]: 408 ± 5 µM; Vmax [1]: 6.6 µmol/min/mg

B2: MBP-OsGS2 (Oryza sativa Japonica Group) (protein)
chain: MAAAAARSGAHPPSFASSLGRCRVLPVVVVRRPGGAARPSPLLAPARCAAAVGTAAPKVEGGGRRSSEQGQLAVAPARLVDELVEEALVWSSQHGLVVGDKNHPRSGKAPGVGLLHAPFALLPMSFSKVYWDQAVELAPLFNELVDRVSLDGDFLQETLARTKEVDSFTGRLLDIHAKMMKLNKKEDVRLGLTRSDYMIDGATDQLLQVELNTISTSSNGLACGVCELHRNLIRQHERELGLDPESVVGNTAIAQHAEALAGAWAEFNNQSSVVLVVVQPEERYMYDQYWITVALREMYGVTTIRKTMAAIDAEGELRPDGTLTIDGLPVAVVYFRAGYTPNDYPSEAEWRARLLIECSSAIKCPSIAHHLVGTKKIQQELAKENVLERFLDNKADIEKVRKCFAGLWSLENDSIVMSAIESPELFVLKPQREGGGNNIYGDNLRETLISLKKDGSNELAAYILMQRIFPPASLCYLVRDGTCIRENAVSEFGIFGAYLRNKDRVIINDQCGYLMRTKAASLNEGGVVAGYAFLNSVFLT
notes: full-length ORF, MBP fusion (pMAL-c5X), expressed in E. coli NEB Express, amylose resin purified; MBP kept
**Q.** What does the source list for B2?
**A.** Km [2]: 2640 ± 50 µM; Vmax [2]: 0.524 µmol/min/mg; Km [3]: 19300 ± 1100 µM; Vmax [3]: 0.459 µmol/min/mg

B3: MBP-OsGS1 (Oryza sativa Japonica Group) (protein)
chain: MSSYVTTPHHHHHHGCCSGSRRLQAPAPPARPRLVVAAAARHVALPPRRAVASRAMSAEAPLGVAPAAAEEEMAAVVDEMAEEAAVWCAVHGLVVGDRAEPRSGTIPGVGLVHAPFALLPTRFPASFWKQARELAPIFNDLVDRVSLDGEFLQDSLSRTRQVDDFTSRLLDIHAKMMEVNKEEDIRLGLHRSDYMLDSGTNSLLQIELNTISSSFPGLSSLVSELHRTLLNRHGKVLGLDSKRIPQNWAATQFAEALSMAWTEFNNKSAVIMMVVQPEERNMYDQYWLINHLKESHGVKTIRKTLAQVEAEGQVLPDGTLVVDGQTVSVVYFRAGYSPNDYPSEAEWRARLLMEQSSAIKCPSISYHLVGTKKIQQELAKPNILERFLNNKEDIAKLRKCFAGLWSLDNEEIVKTAIEKPDLFVLKPQREGGGNNIYGYDLRETLVRLQKEQGEALAAYILMQRIFPRASLTHLVQGGVCFEDLTISELGIFGAYLRNKDKVVLNNQCGYLMRTKVSSSNEGGVAAGFAVLDSILLTDEW
notes: as for B2
**Q.** Which results are given for B3?
**A.** Km [4]: 1280 ± 100 µM; Vmax [4]: 0.759 µmol/min/mg
